Here are results for 3 molecules from article PMC7708039, “Tethering-facilitated DNA ‘opening’ and complementary roles of β-hairpin motifs in the Rad4/XPC DNA damage sensor protein”.

Data set [1] concerns the target T1, Rad4-Rad23 delta-beta-hairpin3 (<137>) (UniProt P14736;P32628 101-598+606-632;1-77+230-398, internal_change;internal_change).
T1 sequence 1: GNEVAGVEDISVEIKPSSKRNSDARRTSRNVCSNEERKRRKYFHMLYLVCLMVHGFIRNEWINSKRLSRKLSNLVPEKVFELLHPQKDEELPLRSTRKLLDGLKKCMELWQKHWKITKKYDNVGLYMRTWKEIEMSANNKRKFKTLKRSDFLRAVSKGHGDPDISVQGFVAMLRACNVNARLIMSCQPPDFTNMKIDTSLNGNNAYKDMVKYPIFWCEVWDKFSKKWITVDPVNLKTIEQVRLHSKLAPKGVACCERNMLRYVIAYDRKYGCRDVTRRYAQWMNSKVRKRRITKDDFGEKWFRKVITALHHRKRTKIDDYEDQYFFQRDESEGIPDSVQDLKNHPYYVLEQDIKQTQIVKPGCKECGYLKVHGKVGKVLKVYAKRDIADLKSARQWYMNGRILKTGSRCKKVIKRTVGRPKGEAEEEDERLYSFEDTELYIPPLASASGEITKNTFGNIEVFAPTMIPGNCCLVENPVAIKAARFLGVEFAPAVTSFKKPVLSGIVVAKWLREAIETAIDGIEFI
T1 sequence 2: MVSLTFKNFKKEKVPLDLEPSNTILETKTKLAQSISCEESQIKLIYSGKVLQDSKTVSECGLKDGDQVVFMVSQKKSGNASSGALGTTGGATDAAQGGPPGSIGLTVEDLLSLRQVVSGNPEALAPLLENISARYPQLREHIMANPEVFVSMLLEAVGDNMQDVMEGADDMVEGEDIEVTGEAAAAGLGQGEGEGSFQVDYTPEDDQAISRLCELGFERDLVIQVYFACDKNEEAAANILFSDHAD
Put plainly: competitive EMSA; apparent Kns; 1000 nM cold CH7_NX competitor; EMSA: 5 mM BTP-HCl pH 6.8, 75 mM NaCl, 5 mM DTT, 5% glycerol, 0.74 mM CHAPS, 500 ug/ml BSA, room temperature 20 min, 5 nM labeled DNA, 1000 nM cold CH7_NX. Particulars: protein: recombinant; tags: N-terminal His tag on Rad4; copies: 1;1; label: 32P; fully matched; 5' overhang 1 nt at both ends. For orientation: In EMSA bound probe runs differently from free probe, usually more slowly.

The target in data set [2] is T2, Rad4-Rad23 WT (no thrombin cleavage) (UniProt P14736;P32628 101-632;1-77+230-398, internal_change).
T2 sequence 1: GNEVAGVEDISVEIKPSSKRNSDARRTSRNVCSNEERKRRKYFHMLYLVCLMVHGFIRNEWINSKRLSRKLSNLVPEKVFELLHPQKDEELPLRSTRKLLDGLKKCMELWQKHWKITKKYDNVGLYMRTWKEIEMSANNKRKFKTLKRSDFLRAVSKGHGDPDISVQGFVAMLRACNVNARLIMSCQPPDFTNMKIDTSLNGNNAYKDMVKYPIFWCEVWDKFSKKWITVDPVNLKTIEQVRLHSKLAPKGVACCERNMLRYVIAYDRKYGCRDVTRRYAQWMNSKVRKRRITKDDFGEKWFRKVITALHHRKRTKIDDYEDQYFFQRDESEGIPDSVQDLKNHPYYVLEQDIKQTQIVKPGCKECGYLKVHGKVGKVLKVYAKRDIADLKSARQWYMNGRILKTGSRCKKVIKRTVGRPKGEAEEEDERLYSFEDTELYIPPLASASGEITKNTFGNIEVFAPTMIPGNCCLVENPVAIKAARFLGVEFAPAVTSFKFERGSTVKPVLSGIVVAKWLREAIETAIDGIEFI
T2 sequence 2: T1 sequence 2
Described as above. Conditions: protein: recombinant; tags: N-terminal His tag on Rad4; copies: 1;1; label: 32P; fully matched; 5' overhang 1 nt at both ends.

Data set [3] deals with T3, Rad4-Rad23 delta-beta-hairpin2 (<130>) (UniProt P14736;P32628 101-514+528-632;1-77+230-398, internal_change;internal_change).
T3 sequence 1: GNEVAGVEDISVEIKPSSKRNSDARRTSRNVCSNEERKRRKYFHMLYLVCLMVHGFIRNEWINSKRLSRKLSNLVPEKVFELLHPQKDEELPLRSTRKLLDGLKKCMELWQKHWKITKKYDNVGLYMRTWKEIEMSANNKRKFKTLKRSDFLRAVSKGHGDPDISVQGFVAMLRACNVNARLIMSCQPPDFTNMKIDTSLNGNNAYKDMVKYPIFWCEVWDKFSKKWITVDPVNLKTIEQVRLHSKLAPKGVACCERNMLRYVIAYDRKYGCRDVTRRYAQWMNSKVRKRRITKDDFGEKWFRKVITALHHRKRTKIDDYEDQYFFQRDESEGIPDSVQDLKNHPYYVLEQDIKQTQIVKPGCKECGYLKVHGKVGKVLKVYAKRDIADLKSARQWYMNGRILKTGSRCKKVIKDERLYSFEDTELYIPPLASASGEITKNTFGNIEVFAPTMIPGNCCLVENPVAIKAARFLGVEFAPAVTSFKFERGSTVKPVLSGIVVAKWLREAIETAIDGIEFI
T3 sequence 2: T1 sequence 2
The description is as above. Particulars: protein: recombinant; tags: N-terminal His tag on Rad4; copies: 1;1; label: 32P; fully matched; 5' overhang 1 nt at both ends.

Data set [4] has as its target T4, Rad4-Rad23 WT crosslinkable (<SC32>) (UniProt P14736;P32628 101-632;1-77+230-398, V131C;C132S;internal_change).
T4 sequence 1: T2 sequence 1 with V31C, C32S
T4 sequence 2: T1 sequence 2
In words: fluorescence lifetime FRET; non-covalent, equimolar; EMSA: 5 mM BTP-HCl pH 6.8, 75 mM NaCl, 5 mM DTT, 5% glycerol, 0.74 mM CHAPS, 500 ug/ml BSA, room temperature 20 min, 5 nM labeled DNA, 1000 nM cold CH7_NX. Conditions: protein: recombinant; tags: N-terminal His tag on Rad4 (fluorescence); copies: 1;1; label: tCo donor, tCnitro acceptor; 3-bp CCC/CCC mismatch.

For data set [5], the target named is T1, Rad4-Rad23 delta-beta-hairpin3 (<137>). Put plainly: competitive EMSA; apparent Ks; 1000 nM cold CH7_NX competitor; EMSA: 5 mM BTP-HCl pH 6.8, 75 mM NaCl, 5 mM DTT, 5% glycerol, 0.74 mM CHAPS, 500 ug/ml BSA, room temperature 20 min, 5 nM labeled DNA, 1000 nM cold CH7_NX. Particulars: protein: recombinant; tags: N-terminal His tag on Rad4; copies: 1;1; label: 32P; 3-bp CCC/CCC mismatch; 5' overhang 1 nt at both ends.

The target in data set [6] is T2, Rad4-Rad23 WT (no thrombin cleavage). The description is as above. Particulars: protein: recombinant; tags: N-terminal His tag on Rad4; copies: 1;1; label: 32P; 3-bp CCC/CCC mismatch; 5' overhang 1 nt at both ends.
Data set [7] has as its target T3, Rad4-Rad23 delta-beta-hairpin2 (<130>). Described as above. Particulars: protein: recombinant; tags: N-terminal His tag on Rad4; copies: 1;1; label: 32P; 3-bp CCC/CCC mismatch; 5' overhang 1 nt at both ends.

Positions count from the first letter of the chain named.

B1: CCC/GGG matched (dsDNA)
DNA 1: TTGACTCGACATCCCCCGCTACAA
DNA 2: ATTGTAGCGGGGGATGTCGAGTCA
For B1, the Kd in data set [1] was ~510 nM; in data set [2] it was ~370 nM; in data set [3] it was ~700 nM.

B2: CCC/CCC_G*_DA (dsDNA)
DNA 1: TTGACTCGACATCCCCCGGTACAA
DNA 2: ATTGTACCCCCGGATGTCGAGTCA
modifications: disulfide-modified guanine G* in top strand
With B2, the binding result in data set [4] was “binds”.

B3: CCC/CCC mismatched (CH10_NX) (dsDNA)
DNA 1: TTGACTCGACATCCCCCGCTACAA
DNA 2: ATTGTAGCCCCGGATGTCGAGTCA
Consider B3, for which the figures for the Kd in data set [5], in data set [6] and in data set [7] were ~200 nM, ~60 nM and ~260 nM, respectively.
